B1: His6-MDH (malate dehydrogenase) (enzyme)
chain: AKVAVLGASGGIGQPLSLLLKNSPLVSRLTLYDIAHTPGVAADLSHIETRATVKGYLGPEQLPDCLKGCDVVVIPAGVPRKPGMTRDDLFNTNATIVATLTAACAQHCPDAMICIISNPVNSTIPITAEVFKKHGVYNPNKIFGVTTLDIVRANAFVAELKGLDPARVSVPVIGGHAGKTIIPLISQCTPKVDFPQDQLSTLTGRIQEAGTEVVKAKAGAGSATLSMAYAGARFVFSLVDAMNGKEGVVECSFVKSQETDCPYFSTPLLLGKKGIEKNLGIGKISPFEEKMIAEAIPELKASIKKGEEFVKNMK
notes: malate dehydrogenase (MDH), thermolabile model substrate; The aggregation, centrifugation and SEC methods say only 'MDH'; also called His6-tagged MDH; source: E. coli (derivative of MC4100), purified (Ni-IDA)
B3: MDH labelled with 7-diethylcoumarin-3-carboxylic acid (enzyme, UniProt P00346 25-338, looked up)
chain: AKVAVLGASGGIGQPLSLLLKNSPLVSRLTLYDIAHTPGVAADLSHIETRATVKGYLGPEQLPDCLKGCDVVVIPAGVPRKPGMTRDDLFNTNATIVATLTAACAQHCPDAMICIISNPVNSTIPITAEVFKKHGVYNPNKIFGVTTLDIVRANAFVAELKGLDPARVSVPVIGGHAGKTIIPLISQCTPKVDFPQDQLSTLTGRIQEAGTEVVKAKAGAGSATLSMAYAGARFVFSLVDAMNGKEGVVECSFVKSQETDCPYFSTPLLLGKKGIEKNLGIGKISPFEEKMIAEAIPELKASIKKGEEFVKNMK
modifications: 7-diethylcoumarin-3-carboxylic acid (succinimidyl ester labelling, sites not stated)
notes: malate dehydrogenase (MDH) purchased from Roche; also called labelled MDH; MDH (Roche); source: bought: Roche; labelled with 7-diethylcoumarin-3-carboxylic acid succinimidyl ester

Key:
Settings in all cases: both partners purified
Hsp42 [1] = target: T1, Hsp42 (S. cerevisiae, UniProt Q12329 1-375); experiment: cross-linking; DSS cross-linking of Hsp42/MDH complexes; MDH cross-link pattern by western blot
T1 construct: Hsp42, small heat shock protein of S. cerevisiae; Cloned into pMal-c2E; the enterokinase site was changed to a PreScission site, so residues of that site may remain at the N-terminus; also called sHsp; small heat shock protein Hsp42; source: E. coli ArcticExpress, purified (amylose resin, PreScission cleavage, Sephacryl S-300); not shown: MBP, N-terminal, cleaved

[2] = target: B3; experiment: FRET or BRET; MDH–YFP and coumarin-labelled MDH (each 0.25 μM) mixed in preheated buffer C at 47 °C (heat-induced co-aggregation); signal at 527 nm; with or without Hsp26 or Hsp42
[3] = target: B1; experiment: co-sedimentation; MDH (0.5 μM) denatured 60 min at 41 °C in buffer C with or without sHsps (0.1–2.5 μM); 10–50% glycerol gradient, 40,000 r.p.m., 1 h, 4 °C, and supernatant-pellet centrifugation; fractions by SDS-PAGE and western blot
Hsp42 [4] = target: T1, Hsp42; experiment: FRET or BRET; MDH–YFP and coumarin-labelled MDH (each 0.25 μM) mixed in preheated buffer C at 47 °C (heat-induced co-aggregation); signal at 527 nm; with or without Hsp26 or Hsp42

T1 sequence (Q12329 whole entry): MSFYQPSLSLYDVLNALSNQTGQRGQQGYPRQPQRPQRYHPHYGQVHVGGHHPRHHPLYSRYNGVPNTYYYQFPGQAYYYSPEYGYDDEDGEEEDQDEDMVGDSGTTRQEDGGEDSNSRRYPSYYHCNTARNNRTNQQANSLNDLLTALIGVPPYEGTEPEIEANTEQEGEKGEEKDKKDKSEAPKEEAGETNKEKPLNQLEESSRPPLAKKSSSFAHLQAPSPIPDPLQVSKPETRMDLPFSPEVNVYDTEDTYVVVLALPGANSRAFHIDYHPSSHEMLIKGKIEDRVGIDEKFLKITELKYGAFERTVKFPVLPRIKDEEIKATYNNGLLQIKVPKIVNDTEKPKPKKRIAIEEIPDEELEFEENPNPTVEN

## B1
Hsp42 [1]
  binding result: binds

B2: Hsp26 (natural protein, S. cerevisiae, UniProt P15992 1-214, looked up)
chain: MSFNSPFFDFFDNINNEVDAFNRLLGEGGLRGYAPRRQLANTPAKDSTGKEVARPNNYAGALYDPRDETLDDWFDNDLSLFPSGFGFPRSVAVPVDILDHDNNYELKVVVPGVKSKKDIDIEYHQNKNQILVSGEIPSTLNEESKDKVKVKESSSGKFKRVITLPDYPGVDADNIKADYANGVLTLTVPKLKPQKDGKNHVKKIEVSSQESWGN
notes: Hsp26, small heat shock protein of S. cerevisiae; also called sHsp; small heat shock protein Hsp26; source: E. coli (derivative of MC4100), solubilised from the pellet in 8 M urea, purified (Ni-IDA, Sephacryl S-300); not shown: His6-Smt3, N-terminal, cleaved
[2]
  binding result: binds
[3]
  binding result: binds

## B3
Hsp42 [4]
  binding result: binds
